Experimental data as given in US20070161067A1 (STANFORD UNIVERSITY, published 2007).

How the values were obtained:
Assay in all cases: cell-based or functional assay
[1] = target: Cfluc-FKBP12, split site at amino acid position 437 of SEQ ID NO: 2 (Photinus pyralis) (UniProt P62942)
[2] = target: Cfluc-FKBP12, split site at amino acid position 420 of SEQ ID NO: 2 (Photinus pyralis) (UniProt P62942)
[3] = target: Cfluc-FKBP12, split site at amino acid position 455 of SEQ ID NO: 2 (Photinus pyralis) (UniProt P62942)
Cfluc-FKBP12, split site at amino acid position 455 of SEQ ID NO: 2 (Photinus pyralis), sequence (P62942 other isoform, or with tags, fused parts or gaps limits assumed): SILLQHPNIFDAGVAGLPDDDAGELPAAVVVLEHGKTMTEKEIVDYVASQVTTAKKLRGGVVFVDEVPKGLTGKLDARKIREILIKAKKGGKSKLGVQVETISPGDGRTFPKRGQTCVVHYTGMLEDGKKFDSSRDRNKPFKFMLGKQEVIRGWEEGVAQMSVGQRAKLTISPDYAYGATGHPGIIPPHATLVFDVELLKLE

[4] = target: Cfluc-FKBP12, split site at amino acid position 445 of SEQ ID NO: 2 (Photinus pyralis) (UniProt P62942)
Cfluc-FKBP12, split site at amino acid position 445 of SEQ ID NO: 2 (Photinus pyralis), sequence (P62942 other isoform, or with tags, fused parts or gaps limits assumed): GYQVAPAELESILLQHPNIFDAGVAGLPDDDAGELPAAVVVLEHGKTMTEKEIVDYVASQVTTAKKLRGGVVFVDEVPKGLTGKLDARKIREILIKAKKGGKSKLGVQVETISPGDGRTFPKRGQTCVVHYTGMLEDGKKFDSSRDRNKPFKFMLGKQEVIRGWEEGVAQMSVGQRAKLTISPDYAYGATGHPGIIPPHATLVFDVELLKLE

[5] = target: Cfluc (445-550 of SEQ ID NO: 2) (Photinus pyralis, UniProt P08659 446-550 = luciferase)
[6] = target: Cfluc (300-550 of SEQ ID NO: 2) (Photinus pyralis, UniProt P08659 300-550 = luciferase)
[7] = target: Cfluc (437-550 of SEQ ID NO: 2) (Photinus pyralis, UniProt P08659 438-550 = luciferase)
[8] = target: Cfluc (265-550 of SEQ ID NO: 2) (Photinus pyralis, UniProt P08659 265-550 = luciferase)
[9] = target: T1, Cfluc (500-550 of SEQ ID NO: 2) (Photinus pyralis, UniProt P08659 501-550 = luciferase)
T1 chain: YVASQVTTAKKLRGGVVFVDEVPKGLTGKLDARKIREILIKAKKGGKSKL

[10] = target: Cfluc (245-550 of SEQ ID NO: 2) (Photinus pyralis, UniProt P08659 245-550 = luciferase)

Cfluc-FKBP12, split site at amino acid position 437 of SEQ ID NO: 2 (Photinus pyralis), sequence (P62942 other isoform, or with tags, fused parts or gaps limits assumed): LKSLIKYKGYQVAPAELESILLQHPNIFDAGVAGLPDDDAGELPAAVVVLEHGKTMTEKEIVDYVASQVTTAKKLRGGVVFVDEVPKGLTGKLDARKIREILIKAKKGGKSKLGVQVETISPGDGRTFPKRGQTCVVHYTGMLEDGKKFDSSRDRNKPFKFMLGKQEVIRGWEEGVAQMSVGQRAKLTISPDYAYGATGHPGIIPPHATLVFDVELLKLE
Cfluc-FKBP12, split site at amino acid position 420 of SEQ ID NO: 2 (Photinus pyralis), sequence (P62942 other isoform, or with tags, fused parts or gaps limits assumed): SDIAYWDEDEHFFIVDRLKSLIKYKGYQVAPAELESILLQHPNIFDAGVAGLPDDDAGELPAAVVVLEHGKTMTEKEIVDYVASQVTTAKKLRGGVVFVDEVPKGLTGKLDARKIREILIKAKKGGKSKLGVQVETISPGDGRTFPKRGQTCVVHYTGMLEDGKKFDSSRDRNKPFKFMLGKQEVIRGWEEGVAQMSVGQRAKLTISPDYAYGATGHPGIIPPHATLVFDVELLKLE

FRB-Nfluc, split site at amino acid position 437 of SEQ ID NO: 2 (from UniProt P42345 2024-2113)
firefly luciferase signal upon exposure to rapamycin, fold over the cells not exposed to rapamycin (co-transfected 293T cells) [1]: 40 fold

FRB-Nfluc, split site at amino acid position 420 of SEQ ID NO: 2 (from UniProt P42345 2024-2113)
firefly luciferase signal upon exposure to rapamycin, fold over the cells not exposed to rapamycin (co-transfected 293T cells) [2]: 10 fold

FRB-Nfluc, split site at amino acid position 455 of SEQ ID NO: 2 (from UniProt P42345 2024-2113)
firefly luciferase signal upon exposure to rapamycin, fold over the cells not exposed to rapamycin (co-transfected 293T cells) [3]: 30 fold

FRB-Nfluc, split site at amino acid position 445 of SEQ ID NO: 2 (from UniProt P42345 2024-2113)
firefly luciferase signal upon exposure to rapamycin, fold over the cells not exposed to rapamycin (co-transfected 293T cells) [4]: 350 fold

B1: Nfluc (1-475 of SEQ ID NO: 2) (other)
chain: MEDAKNIKKGPAPFYPLEDGTAGEQLHKAMKRYALVPGTIAFTDAHIEVNITYAEYFEMSVRLAEAMKRYGLNTNHRIVVCSENSLQFFMPVLGALFIGVAVAPANDIYNERELLNSMNISQPTVVFVSKKGLQKILNVQKKLPIIQKIIIMDSKTDYQGFQSMYTFVTSHLPPGFNEYDFVPESFDRDKTIALIMNSSGSTGLPKGVALPHRTACVRFSHARDPIFGNQIIPDTAILSVVPFHHGFGMFTTLGYLICGFRVVLMYRFEEELFLRSLQDYKIQSALLVPTLFSFFAKSTLIDKYDLSNLHEIASGGAPLSKEVGEAVAKRFHLPGIRQGYGLTETTSAILITPEGDDKPGGVGKVVPFFEAKVVDLDTGKTLGVNQRGELCVRGPMIMSGYVNNPEATNALIDKDGWLHSDIAYWDEDEHFFIVDRLKSLIKYKGYQVAPAELESILLQHPNIFDAGVAGLPDDD
average of photon max across six animals, 72 h [5]: 0.7 P/cm^2/sec/sr | average of photon max across six animals, 72 h [6]: 1.9 P/cm^2/sec/sr | bioluminescence signal of implanted co-transfected 293T cells in living mice, 24 h [6]: 0.3 P/cm^2/sec/sr | average of photon max across six animals, 72 h [7]: 2.1 P/cm^2/sec/sr | average of photon max across six animals, 72 h [8]: 1.8 P/cm^2/sec/sr | bioluminescence signal of implanted co-transfected 293T cells in living mice, 24 h [8]: 0.3 P/cm^2/sec/sr | average of photon max across six animals, 72 h [9]: 0.3 P/cm^2/sec/sr | average of photon max across six animals, 72 h [10]: 1.1 P/cm^2/sec/sr | bioluminescence signal of implanted co-transfected 293T cells in living mice, 24 h [10]: 0.3 P/cm^2/sec/sr | luciferase signal against the combination Nfluc 1-475 / Cfluc 265-550 (cell culture and animal study) [10]: 2 fold less
